{
  "source": "paper PMC7839251",
  "molecular_target": "N-terminal fluorescein labeled ubiquitin E3 ligase WWP2 (FAM-WWP2)",
  "experiment": "MST",
  "data": [
    {"substance": "ubiquitin E2 conjugating enzyme UbcH5c (from UniProt P61077 1-147)", "values": [
      {"measurement": "Kd", "result": 9.6, "unit": "µM"}
    ]}
  ]
}
